Assay results reported in US20160130575, “SCREENING OF NUCLEIC ACID AGENTS VIA PARTICLE DISPLAY” (THE REGENTS OF THE UNIVERSITY OF CALIFORNIA, published 2016).

Key:
[1] = target: Apolipoprotein E3 (ApoE3) (Homo sapiens, UniProt P02649 P02649:19-317); assay: flow; FP-only particle negative control, 3 nM ApoE; conditions: tags: His6; biotinylated (NHS-PEO4); R&D Systems
[2] = target: Plasminogen activator inhibitor-1 (PAI-1) (Homo sapiens, UniProt P05121 P05121:24-402); assay: flow; FP-only particle negative control, 1 nM PAI-1; conditions: tags: His6; biotinylated (NHS-PEO4); Millipore
Chain of Plasminogen activator inhibitor-1 (PAI-1) (P05121 24-402, one chain of several): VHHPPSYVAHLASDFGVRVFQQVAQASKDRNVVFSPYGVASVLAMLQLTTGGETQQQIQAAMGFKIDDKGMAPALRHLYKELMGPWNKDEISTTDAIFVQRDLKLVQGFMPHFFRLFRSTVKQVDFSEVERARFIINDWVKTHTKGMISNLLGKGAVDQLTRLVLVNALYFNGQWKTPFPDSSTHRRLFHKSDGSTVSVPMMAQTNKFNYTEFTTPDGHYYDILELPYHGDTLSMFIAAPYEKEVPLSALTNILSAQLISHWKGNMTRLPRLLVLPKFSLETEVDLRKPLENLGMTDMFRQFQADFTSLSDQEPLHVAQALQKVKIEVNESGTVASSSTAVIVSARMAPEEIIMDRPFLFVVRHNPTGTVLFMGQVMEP

[3] = target: 4-1BB/TNFRSF9/CD137 Fc chimera (Homo sapiens, UniProt Q07011 Q07011:24-186); assay: flow; FP-only particle negative control, 4 nM 4-1BB; conditions: tags: Fc fusion; His6; biotinylated (NHS-PEO4); R&D Systems; chain copies: 2
Chain of 4-1BB/TNFRSF9/CD137 Fc chimera (Q07011 24-186, change not shown, one chain of several): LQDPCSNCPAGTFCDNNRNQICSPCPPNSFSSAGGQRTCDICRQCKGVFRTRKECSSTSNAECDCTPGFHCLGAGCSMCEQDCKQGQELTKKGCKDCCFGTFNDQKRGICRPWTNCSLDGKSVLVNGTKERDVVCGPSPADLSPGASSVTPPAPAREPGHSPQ

[4] = target: alpha-thrombin (Homo sapiens, UniProt P00734;P00734 P00734:328-363,P00734:364-622); assay: flow; FP-only particle negative control, 20 pM thrombin

Measured: binding result

Chain of Apolipoprotein E3 (ApoE3) (P02649 19-317, one chain of several): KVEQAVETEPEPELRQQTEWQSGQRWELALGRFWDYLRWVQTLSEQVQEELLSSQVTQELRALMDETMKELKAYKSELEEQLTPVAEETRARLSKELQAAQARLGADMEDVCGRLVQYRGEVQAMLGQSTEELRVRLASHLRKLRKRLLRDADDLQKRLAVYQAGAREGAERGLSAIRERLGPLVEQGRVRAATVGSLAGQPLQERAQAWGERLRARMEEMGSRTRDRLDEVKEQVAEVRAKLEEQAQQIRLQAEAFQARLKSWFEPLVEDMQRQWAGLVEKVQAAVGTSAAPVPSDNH

B1: Forward primer (FP) control (ssDNA)
DNA: AGCAGCACAGAGGTCAGATG
modifications: 5'-amino-PEG18, coupled to magnetic particle
no binding: all assays above
